Laboratory results: US20210317231A1 (BYONDIS B V, published 2021)
Changes are numbered by the printed parent chain. Read-outs that look alike come from different tables or passages of the source.

T1: human 5T4 oncofoetal antigen (human, UniProt Q13641 32-420)
T1 construct: whole, on cells; also called hu 5T4; human 5T4 antigen
T1 sequence (looked up): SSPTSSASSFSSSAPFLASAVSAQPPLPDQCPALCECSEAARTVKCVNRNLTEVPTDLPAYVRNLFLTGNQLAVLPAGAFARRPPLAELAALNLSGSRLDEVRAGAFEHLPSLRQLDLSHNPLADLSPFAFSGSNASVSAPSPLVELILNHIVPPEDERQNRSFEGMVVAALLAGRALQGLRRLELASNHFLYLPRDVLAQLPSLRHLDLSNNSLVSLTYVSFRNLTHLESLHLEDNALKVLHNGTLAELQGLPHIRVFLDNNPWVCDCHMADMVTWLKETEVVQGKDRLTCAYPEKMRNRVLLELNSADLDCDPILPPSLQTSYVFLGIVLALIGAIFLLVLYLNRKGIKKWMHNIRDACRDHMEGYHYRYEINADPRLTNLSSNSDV

T2: cynomolgus monkey 5T4 antigen (cynomolgus monkey, UniProt Q4R8Y9 35-420)
T2 construct: whole, on cells; also called cyno 5T4
T2 sequence (looked up): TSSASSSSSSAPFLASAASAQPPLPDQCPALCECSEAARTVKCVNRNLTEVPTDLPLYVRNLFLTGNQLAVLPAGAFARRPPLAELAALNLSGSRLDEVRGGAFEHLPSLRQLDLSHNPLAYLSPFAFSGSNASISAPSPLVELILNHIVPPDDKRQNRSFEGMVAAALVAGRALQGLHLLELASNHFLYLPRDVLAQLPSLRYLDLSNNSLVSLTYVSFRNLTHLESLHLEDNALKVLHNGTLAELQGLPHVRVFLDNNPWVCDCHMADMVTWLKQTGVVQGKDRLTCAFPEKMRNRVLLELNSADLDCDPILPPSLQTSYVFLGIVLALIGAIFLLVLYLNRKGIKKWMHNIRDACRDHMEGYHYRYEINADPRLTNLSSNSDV

B1: chimeric anti-5T4 antibody 899 with HC-41C mutation (antibody, human IgG1, V domains shown)
VH: QSVEESGGRLVTPGTPLTLTCTVSGFSLSSYTMSWVRQACGKGLEYIGIISSSDGTWYANWVKGRFTISKTSTTVDLKMTSLTTEDTATYFCARDGTGNKYYTWDRLDLWGQGTLVTVSS
VL: NIVMTQTPSPVSGAVGGTVTINCQASQSIYNELSWYQQKPGQPPKLLIYYASTLASGVSSRFKGSGSGTQFTLTISGVESVDAATYYCQQGYSSSNVDNVFGGGTEVVVK
notes: Human IgG1 constant parts; also called chimeric 899; 899 chimeric
B2: chimeric anti-5T4 monoclonal antibody 847 (antibody, human IgG1, V domains shown)
VH: QSVEESGGRLVTPGTPLTLTCTVSGFSLSSYDMSWVRQAPGKGLEYIGYINSDGSAYYASWAKGRFTISKTSSTTVDLKITSPTTEDTATYFCARDAGSTYLYGMDPWGPGTLVTVSS
VL: DVVMTQTPASVSEPVGGTVTINCQASQSIYSYLAWYQQKPGQRPKLLIYAASTLASGVSSRFKGSGSGTQFTLTISDLESADAATYYCQCTYYGGTFNTFGGGTEVVVK
B3: chimeric anti-5T4 monoclonal antibody 908 (antibody, human IgG1, V domains shown)
VH: QSVEESGGRLVTPGTPLTLTCTVSGFSLSNFAMSWVRQAPGKGLEWIGIINGYGSIYYATWAKGRFTISKTSTTVDLKITSPTTEDTATYFCARGDAGRTYNHYFNIWGPGTLVTVSL
VL: DVVMTQTPASVEAAVGGTVTIKCQASQSISSWLSWYQQKPGQRPKLLIYAASNLASGVPSRFKGSGSGTQFTLTISDLESDDAATYYCQQGYTSYNVDNAFGGGTEVVVK
B4: chimeric anti-5T4 monoclonal antibody 811 (antibody, human IgG1, V domains shown)
VH: QSVEESGGRLVTPGTSLTLTCTASGFSLSTYAMIWVRQAPGKGLEWIGIINSSGYTYYANWAKGRFTISKTSTTVDLKITSPTTEDTATYFCARGNAGISYDVSFNLWGQGTLVTVSS
VL: AYDMTQTPASVEAGVGGTVTINCQASESISSWLAWYQQKPGQPPNLLIYEASKLASGVPSRFSGSGSGTEFTLTISGVESADAATYYCQQGWTSSNIDNAFGGGTEVVVK
B5: chimeric anti-5T4 monoclonal antibody 828 (antibody, human IgG1, V domains shown)
VH: QSVEESGGRLVTPGTPLTLTCTVSEIDLSTYAMSWVRQAPGKGLEWIGIISAGGSAYYASWAKGRFTISRTSTTVDLKMTSLTTEDTATYFCARGAAYAGYTYGFSFFDIWGPGTLVTVSL
VL: DIVMTQTPSSVSAAVGGTVTINCQASQNIYSNLAWYQQKPGQRPKLLIYGASNLESGVPSRFKGSGSGTEYTLTISDLESDDAATYYCQSIDYGNNYLGSFGGGTEVVVK
B6: humanized anti-5T4 antibody 789a with HC-41C mutation (antibody, V domains shown)
VH: EVKVEESGGGLVQPGGSLRLSCAASGFSLSSYWMSWVRQACGKGLEWVSIIAGRGSTYYASWAKGRFTISKDNSEGMVYLQMNSLRAEDTAVYYCARVSSIYYTFNLWGQGTTVTVSS
VL: EIVLTQSPSSLSASVGDRVTITCQSSQSVYSNNELSWYQQKPGKAPKLLIYYASTLASGVPSRFSGSGSGTDFTLTISSLQPEDFATYYCQGSYYSGSGWYYAFGQGTKLEIKR
B7: humanized anti-5T4 antibody 789b with HC-41C mutation (antibody, V domains shown)
VH: EVQLLESGGSLVLPGGSLRLSCAASGFSLSSYWMSWVRQACGKGLEWVSIIAGRGSTYYASWAKGRFTISRDNSKNTLYMQMNSLRAEDTALYFCARVSSIYYTFNLWGQGTLVTVSS
VL: B6 VL
B8: humanized anti-5T4 antibody 789c with HC-41C mutation (antibody, V domains shown)
VH: QSVEESGGGLVQPGGSLRLSCAASGFSLSSYWMSWVRQACGKGLEWIGIIAGRGSTYYASWAKGRFTISRDNSKNTLYLQMNSLRAEDTAVYYCARVSSIYYTFNLWGQGTLVTVSS
VL: DIVMTQSPDSLAVSLGERATINCQSSQSVYSNNELSWYQQKPGQPPKLLIYYASTLASGVPDRFSGSGSGTDFTLTISSLQAEDVAVYYCQGSYYSGSGWYYAFGGGTKLEIKR
B9: humanized anti-5T4 antibody 789d with HC-41C mutation (antibody, V domains shown)
VH: B8 VH
VL: B6 VL with E1A, I2Q, Q106G, L110V
B10: humanized anti-5T4 antibody 833a with HC-41C mutation (antibody, human IgG1, kappa, V domains shown)
VH: EVQLVESGGGLIQPGGSLRLSCAASGIDLSHYVVGWVRQACGKGLEWVSIIYGSGRTYYANWAKGRFTISKDNSKNTLYVRMNSLRAEDTAVYYCARDASVSVYYWGYFDLWGQGTLVTVSS
VL: AYDMTQSPSSVSASVGDRVTITCQASQSIGSELAWYQQKPGKAPKLLIYRASTLESGVPSRFSGSGSGTDFTLTISSLQPEDFATYYCQQGYTYSEIDNAFGGGTKVEIKR
B11: humanized anti-5T4 antibody 833b with HC-41C mutation (antibody, human IgG1, kappa, V domains shown)
VH: B10 VH with I12V, K71R, Y79F, V80L, A87V, Y94F
VL: B10 VL
B12: humanized anti-5T4 antibody 833c with HC-41C mutation (antibody, human IgG1, kappa, V domains shown)
VH: B10 VH with V5E, I12V, Q13K, K71R, V80L, R81Q, Q114R
VL: B10 VL with A1D, Y2I, D3Q, S10T, V11L, D70E, E81D, G103Q
B13: humanized anti-5T4 antibody 833d with HC-41C mutation (antibody, human IgG1, kappa, V domains shown)
VH: QSLEESGGGLVQPGGSLRLSCAASGIDLSHYVVGWVRQACGKGLEWIGIIYGSGRTYYANWAKGRFTISRHNSKNTLYLQMNSLRAEDTAVYYCARDASVSVYYWGYFDLWGQGTLVTVSS
VL: B10 VL with A1D, Y2I, D3Q, V11L, K42Q, D70E, L73F, F83L, G103Q, V107L
B14: humanized anti-5T4 antibody 825b with HC-41C mutation (antibody, human IgG1, kappa, V domains shown)
VH: EVQLEESGGGLVKPGGSLRLSCAASGIDLSSYGMGWVRQACGKGLEWVSIISRNSVTYYATWAKGRFTISRDNSKNTLYLQMNSLRAEDTAVYYCARRATYSGALGYFDIWGRGTLVTVSS
VL: EIVMTQSPSSLSASVGDRVTITCQASENIYSTLAWYQQKPGKAPKLLIYDAFDLASGVPSRFSGSGSGTDYTLTISSLQPEDFATYYCQQGYSGTNVDNAFGQGTKLEIKR
B15: prior art anti-5T4 antibody H8 (H8 humanized variant 1) (antibody, human IgG1, kappa, V domains shown)
VH: QVQLVQSGAEVKKPGASVKVSCKASGYSFTGYYMHWVKQSPGQGLEWIGRINPNNGVTLYNQKFKDRVTMTRDTSISTAYMELSRLRSDDTAVYYCARSTMITNYVMDYWGQGTLVTVSS
VL: DIVMTQSPDSLAVSLGERATINCKASQSVSNDVAWYQQKPGQSPKLLISYTSSRYAGVPDRFSGSGSGTDFTLTISSLQAEDVAVYFCQQDYNSPPTFGGGTKLEIKR

Experiments:
[1] = biological target: T1, human 5T4 oncofoetal antigen; experiment: flow cytometry, CHOZN cells expressing hu 5T4
[2] = biological target: T2, cynomolgus monkey 5T4 antigen; experiment: flow cytometry, CHOZN cells expressing cyno 5T4
[3] = biological target: T2, cynomolgus monkey 5T4 antigen; experiment: flow cytometry, CHOZN cells expressing cyno 5T4; remark: listed apart in the source
Experimental: (§1) 17 antibodies were selected and affinity to 5T4 antigen was measured using MDA-MB-468 cells, PA-1 cells and Chinese Hamster Ovary (CHO) mammalian cells expressing human or cyno 5T4 antigen (Table 2). In the current application the utilized CHO cells are referred to as CHOZN as these CHO cells expressing human or cyno 5T4 antigen were obtained using the CHOZN® Platform of Sigma-Aldrich. CHOZN cells (SAFC) were transiently transfected, using an Amaxa nucleofector device (Lonza) according to the manufacturer's instructions. Standard, commercially available mammalian expression vectors (SAFC, Life Technologies) were used, which contained the full length human and cyno 5T4 antigen coding sequence (according to accession number NP 006661.1 and Q4R8Y9 respectively), preceded by a human CMV promoter. Transiently transfected CHOZN cells were cultured according the manufacturer's instructions, before being used in antibody binding studies. The 17 selected antibodies are characterised by the amino acid sequences according to the following table (Table 1).
(§2) MDA-MB-468 cells, PA-1 cells or CHOZN cells expressing human or cyno 5T4 antigen (100,000 cells/well in a 96-well plate) were washed three times with ice-cold FACS buffer (1×PBS (Lonza) containing 0.2% v/w BSA (Sigma-Aldrich, St. Louis, Mo.)) and 0.02% v/w NaN3 (Sigma-Aldrich), followed by the addition of a concentration range of each primary mAb (50 μl/well) diluted in ice-cold FACS buffer. After an incubation of 30 minutes at 4° C., cells were washed three times with ice-cold FACS buffer and 50 μl/well secondary mAb (AffiniPure F(ab′)2 fragment Goat-anti-human IgG-APC, 1:6,000 dilution, Jackson Immuno Research) was added. After 30 minutes at 4° C., cells were washed twice and resuspended in 150 μl FACS buffer. Fluorescence intensities were determined by flow cytometry (BD FACSVerse, Fanklin Lakes, N.J.) and indicated as the median fluorescence intensity (MFI). Curves were fitted by nonlinear regression using the sigmoidal dose-response equation with variable slope (four parameters) in GraphPad Prism (version 5.01/6.01 for Windows, GraphPad, San Diego, Calif.). EC₅₀ values were calculated as the concentration in μg/ml that gives a response half way between bottom and top of the curve, when using a 4 parameter logistic fit.

[4] = biological target: T2, cynomolgus monkey 5T4 antigen; experiment: flow cytometry, CHOZN cells expressing cyno 5T4; remark: listed apart in the source
Experimental: as §2

[5] = biological target: T1, human 5T4 oncofoetal antigen; experiment: flow cytometry, CHOZN cells expressing hu 5T4; remark: listed apart in the source
Experimental: as §1, §2

[6] = biological target: T1, human 5T4 oncofoetal antigen; experiment: flow cytometry, PA-1 cells
Experimental: as §1, §2

[7] = biological target: T1, human 5T4 oncofoetal antigen; experiment: flow cytometry, MDA-MB-468 cells
Experimental: as §1, §2

Binder	EC50 [1]	EC50 [2]	EC50 [3]	fold improvement of binding compared to H8 on cyno 5T4 [4]	EC50 [5]	EC50 [6]	EC50 [7]
B1	0.14 µg/mL	0.18 µg/mL					
B2			0.2 µg/mL	32 fold	0.22 µg/mL	0.22 µg/mL	0.2 µg/mL
B3			0.24 µg/mL	32 fold	0.23 µg/mL	0.04 µg/mL	0.21 µg/mL
B4			0.25 µg/mL	32 fold	0.34 µg/mL	0.4 µg/mL	0.73 µg/mL
B5			0.82 µg/mL	7 fold	0.19 µg/mL	0.1 µg/mL	0.1 µg/mL
B6	0.2 µg/mL	0.33 µg/mL					
B7	0.15 µg/mL	0.24 µg/mL					
B8	0.2 µg/mL	0.21 µg/mL					
B9	0.12 µg/mL	0.15 µg/mL					
B10	0.22 µg/mL	0.12 µg/mL					
B11	0.15 µg/mL	0.18 µg/mL					
B12	0.18 µg/mL	0.17 µg/mL					
B13	0.18 µg/mL	0.16 µg/mL					
B14	0.16 µg/mL	0.46 µg/mL					
B15		1.99 µg/mL	8.11 µg/mL				
